# Assay results taken from patent publication US8034572B2, “Receptor for GDNF family ligands” (priority 2006, dated 2011).
# Values joined by “and” are separate entries in the source; they are usually repeats but may differ in a detail not shown here. Identical values can stand only once. Like-named read-outs stand apart in the source and are kept apart here.
# T1: GDNF (Homo sapiens, UniProt P39905)
# T1 construct: purchased PeproTech, Ltd. or R&D Systems, Inc
# T1 sequence (P39905 78-211 limits assumed): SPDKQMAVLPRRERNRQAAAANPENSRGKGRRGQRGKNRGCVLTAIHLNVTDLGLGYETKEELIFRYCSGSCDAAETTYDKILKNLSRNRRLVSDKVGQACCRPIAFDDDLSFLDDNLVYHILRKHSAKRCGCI
# Assays:
# GDNF [1] = molecular target: T1, GDNF; experiment: SPR: direct binding of heparin or desulfated heparins to GDNF cuvette
# Protocol: (§1) Specifically desulfated heparins (Takano et al., 1998) were used to assess the involvement of different sulfate groups in the GDNF-heparin interaction by following direct binding to GDNF cuvette, or by competing out GDNF binding to the heparin-BSA cuvette. Dissociation constants were determined from direct binding using increasing GDNF concentrations and by fitting the data to R=(Rmax*C)/(Kd+C) for heparin. For desulfated heparins, the best fit was achieved using equation R=(Rmax1*C)/(Kd1+C)+(Rmax2*C)/(Kd2+C), where Kd1 and Kd2 are apparent dissociation constants derived for two heparin sites of different affinities with maximum equilibrium response Rmax1 and Rmax2, respectively.
# GDNF [2] = molecular target: T1, GDNF; experiment: SPR: competition of GDNF binding to heparin-BSA cuvette by heparin and desulfated heparins; details: competing out GDNF binding to heparin-BSA cuvette
# Protocol: as §1
# SHEP cells = experiment: SHEP cell adhesion and spreading assay on immobilized proteins; assay type: cell-based, human; details: for adherence and spreading of SHEP cells on immobilized protein: protein immobilized on plastic microplate
# Protocol: Cell adhesion assays were essentially performed as described elsewhere (Weinacker et al., 1994). To prepare protein-coated surfaces the protein of interest (10 μg/ml in PBS) was applied to 96-well ELISA (Greiner) plates or to glass cover slips for 12-18 hours at +4° C. After incubation, the surfaces were washed with PBS and blocked with 1% globulin-free BSA for two hours. Some GDNF coated surfaces were incubated with 20 μg/ml of G-90 (Amgen) GDNF function-blocking antibodies (Xu et al., 1998) for 2 hours at room temperature.
# Subconfluent SHEP cells were harvested in PBS supplemented with 10 mM EDTA for 5 min at 37° C. Cells were washed with incubation buffer (RPMI 1640, 0.2% BSA, 15 mM HEPES pH 7.2) and 10000-40000 cells/well plated on the protein coated surface. Plates were centrifuged for 5 min at 10 g and incubated for one hour at 37° C. in 5% CO2. After incubation cells were washed with PBS, fixed with methanol supplemented with crystal violet for 15 min at room temperature and washed again with PBS. The remaining cells were counted using a Leica DMIRB inverted microscope with 10× objective in 5 fields per well.
# Some cells were pretreated with heparinase III, PI-PLC (see above), 0.3 U/ml chodroitinase ABC for one hour at 37° C., 5% CO2, or with 20 μg/ml of NCAM blocking antibodies (AB5032, Chemicon Inc.) for 15-30 min on ice.
# After one hour of incubation in serum-free medium unattached cells were removed by washing. The remaining cells were stained and counted on Leica DMIRB inverted microscope with a 10× objective in 5 fields per well and the resulting cell number was calculated for the whole well.
# Live SHEP cells spreading on immobilized GDNF were imaged for 20 minutes using the Till imaging system with an Imago-QE digital camera (Till Photonics) equipped with heating (+37° C.) and CO2 supply (5%) chambers.
# [3] = test system: rat embryonic hippocampal neurons; experiment: Neurite outgrowth assay in E17 rat hippocampal neurons; assay type: cell-based; details: E17 rat hippocampal neurons
# Protocol: Hippocampi were dissected from E17 embryonic rat brains under the microscope and transferred to the preparation media (HBBS without Ca^2+ and Mg^2+ supplemented with 1 mM sodium pyruvate (Gibco) and buffered by 10 mM Hepes pH 7.2), then partially digested by papain and triturated in the preparation media supplemented with DNase I. Cells were washed with HBBS containing Ca^2+ and Mg^2+ and transferred to the growth media (Neurobasal media with B27 supplement, 2 mM L-glutamine, 25 μM glutamic acid and penicillin and streptomycin (Gibco)). For enzymatic treatments neurons were kept in the growth media supplemented with 0.2% BSA at +37° C. for one hour. After the treatment cells in the same media were seeded on the protein-coated cover slips (see above) and after 10 min, the media was changed for B27-free media. Neurons were incubated at +37° C., 5% CO2 for 18 hours.
# For immunocytochemistry neurons were washed with PBS and fixed with 4% PFA, permeabilized with 0.1% Triton X-100 and stained with rabbit polyclonal antiserum to Protein Gene Product 9.5 (Affiniti), neuron-specific Class III tubulin-βIII clone Tuj1 antibodies (BABCO) or with antibodies against the neurofilament triplet, 13AA8 (Arumäe et al., 1993). Secondary antibodies were goat anti-rabbit or anti-mouse Alexa488-conjugated (Molecular Probes).
# The immunostained cultures were viewed using the ×20 objective of a Zeiss Axioplan 2 fluorescent microscope (Zeiss). Neurons with at least two times longer than cell body diameter processes were considered process-bearing. Three cover slips were used in parallel and 100 neurons per cover slip were counted. Results were derived from 3 to 5 independent experiments.
# [4] = Binding of ^125I-labeled GFLs to heparin-sepharose column, step NaCl elution; details: for NaCl concentration at elution from heparin-sepharose column: ^125I-GFLs, step NaCl gradient; for binding to heparin-sepharose column: ^125I-labeled GFLs
# Protocol: GFL iodination was performed as described (Lindahl et al., 2001). Heparin-sepharose column (Amersham Biosciences) chromatography was performed to assess GFL binding to heparin. GDNF, ARTN, NRTN and PSPN were purchased from PeproTech, Ltd. or R&D Systems, Inc. GFLs were enzymatically labeled with carrier-free [^125I]NaI (Amersham Biosciences) by the lactoperoxidase method to a specific activity of 100000-200000 cpm/ng as described elsewhere (Lindahl et al., 2001). 15000-20000 cpm of iodinated GFLs, together with 10 μg of the same unlabeled protein as a carrier, were injected into a 1 ml heparin-sepharose column (Amersham Biosciences) in phosphate buffer pH 7.2 containing 100 mM NaCl and 10 mg/ml of BSA. After washing with 5 volumes of the same buffer, iodinated GFLs were eluted from the column by step elution (2 ml) with increasing NaCl concentration. The resulting fractions were counted on Rackbeta 1214 (LKB/Wallac) scintillation counter.
# [5] = SPR (IAsys): GFLs interaction with heparin-BSA cuvette; assay type: binding; details: for ka (×10^−5) (M^−1s^−1) / kdis: GFL in solution; for Kd = kdis/ka: from dynamics; for Kd: from equilibrium response
# Protocol: (§2) The affinities of GFLs for heparin and heparin-like molecules (e.g. syndecan-3) were determined by plasmon surface resonance using the IAsys system (Affinity Sensors, Cambridge, UK). Planar aminosilane cuvettes (Affinity Sensors) were used for protein coupling to avoid problems with mass transport, which occur frequently with matrix surfaces. In the initial approach, heparin-BSA was immobilized to the cuvette surface using the manufacturer's instructions and different ligand concentrations were used to determine association (ka) and dissociation (kdis) rates using the IAsys Fastfit software. The dissociation constant Kd was determined from the binding dynamics as […], or from equilibrium response (R) using a simple Langmuir fit: R=(Rmax*C)/(Kd+C), where C is the ligand concentration. […] The dissociation constants were determined from binding dynamics and equilibrium response. The same cuvettes were used to test binding of heparan sulfate proteoglycan syndecan-3, which was purified as an ectodomain from early postnatal rat brains by HB-GAM affinity chromatography (Raulo et al., 1994).
# (§3) Binding was analyzed using IAsys cuvettes with immobilized heparin-BSA or GFLs. The dissociation constant Kd was determined from dynamics of association and dissociation (Kd=kdis/ka), or from equilibrium response R (R=(Rmax*C)/(Kd+C), where C is ligand concentration).
# [6] = SPR (IAsys): heparin interaction with GFLs cuvette; assay type: binding; details: for ka (×10^−5) (M^−1s^−1) / kdis: heparin in solution; for Kd = kdis/ka: from dynamics
# Protocol: as §2, §3
# syndecan-3 ectodomain = molecular target: T2, syndecan-3 ectodomain (Rattus norvegicus, UniProt P33671); experiment: SPR (IAsys): syndecan-3 ectodomain interaction with GFLs cuvette; assay type: binding; details: syndecan-3 ectodomain in solution
# T2 construct: purified as an ectodomain from early postnatal rat brains; from tissue; host or cells: early postnatal rat brain
# T2 sequence (P33671 45-387 limits assumed): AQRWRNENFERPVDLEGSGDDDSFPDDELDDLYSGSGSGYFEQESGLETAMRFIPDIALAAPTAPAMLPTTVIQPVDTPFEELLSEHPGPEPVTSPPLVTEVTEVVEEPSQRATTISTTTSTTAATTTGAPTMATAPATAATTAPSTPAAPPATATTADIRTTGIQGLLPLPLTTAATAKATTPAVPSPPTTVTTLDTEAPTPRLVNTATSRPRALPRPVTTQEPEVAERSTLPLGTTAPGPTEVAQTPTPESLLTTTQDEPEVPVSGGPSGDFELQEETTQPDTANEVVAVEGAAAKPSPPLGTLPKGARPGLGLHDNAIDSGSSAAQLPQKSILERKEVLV
# Protocol: as §2, §3
# GDNF-syndecan-3 complex = molecular target: T3, GDNF-syndecan-3 complex (UniProt P33671+P39905); experiment: Chemical cross-linking of ^125I-GDNF to C6 cells and immunoprecipitation with anti-syndecan-3; assay type: cell-based, rat; details: heparin 1 μg/ml; HB-GAM 150-fold molar excess; added with ^125I-GDNF
# T3 construct: the rat glioma C6 cell line, which expresses syndecan-3; endogenous in cells; host or cells: rat glioma C6 cells (syndecan-3); GDNF purchased from PeproTech or R&D Systems and iodinated
# T3 sequence (P33671 45-442, one chain of several): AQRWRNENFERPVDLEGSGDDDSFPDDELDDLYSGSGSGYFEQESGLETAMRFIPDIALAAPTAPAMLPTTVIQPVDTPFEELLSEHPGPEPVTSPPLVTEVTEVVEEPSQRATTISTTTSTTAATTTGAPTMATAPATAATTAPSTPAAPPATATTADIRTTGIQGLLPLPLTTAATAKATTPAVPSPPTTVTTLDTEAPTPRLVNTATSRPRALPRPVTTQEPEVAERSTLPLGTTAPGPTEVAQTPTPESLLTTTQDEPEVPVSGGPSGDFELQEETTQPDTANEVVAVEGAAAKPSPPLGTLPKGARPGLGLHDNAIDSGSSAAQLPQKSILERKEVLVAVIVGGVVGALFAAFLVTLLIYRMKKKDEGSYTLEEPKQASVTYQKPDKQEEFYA
# Protocol: Glioma C6 cells were plated on 6-well plates and grown to 70% confluency. Cells were incubated with 1 nM ^125I-GDNF for 2 hours in binding buffer (Dulbecco's modified Eagle's medium, 0.2% BSA and 15 mM Hepes, pH 7.2) on ice. Unbound ligand was removed by washing three times with ice-cold PBS. The chemical cross-linker ethyl-dimethyl-aminopropyl-carbodimide (EDAC) supplemented with N-hydroxysuccinimide (NHS) (Sigma) was incubated with cells for 20 min at room temperature in PBS. The reaction was quenched with TBS for 15 min and cells were lysed in lysis buffer (TBS, 1% Triton X-100, 1% NP-40, 2 mM EDTA, 1 mM PMSF and Complete protease inhibitor mixture from Roche Molecular Biochemicals). Cell lysates were immunoprecipitated with anti-syndecan-3 antibodies (Nolo et al., 1995) and resolved on 7.5% SDS-PAGE. Autoradiography was performed with BAS1500 (Fuji). For heparinase III or PI-PLC treatment cells were incubated with 10 mU/ml heparinase III or with 1 U/ml PI-PLC, respectively for one hour at 37° C., 5% CO2 before ^125I-GDNF addition.
# [7] = apparent Kd from equilibrium response, read-out: Kd1
# [8] = apparent Kd of second site, two-site fit, read-out: Kd2
# [9] = pretreatment of cells with SFK inhibitor
# [10] = GFLs cuvette, from equilibrium response, read-out: Kd (equilibrium)
Molecule,Kd (GDNF [1]; [7]),Kd (GDNF [1]; [8]),IC50 (GDNF [2]),NaCl concentration at elution from heparin-sepharose column [4],binding to heparin-sepharose column [4],Kd = kdis/ka [5],Kd [5],ka (×10^−5) (M^−1s^−1) [5],kdis [5],ka (×10^−5) (M^−1s^−1) ([6]; GFLs cuvette),kdis ([6]; GFLs cuvette),adherence and spreading of SHEP cells on immobilized protein (SHEP cells),further results
2-O-desulfated heparin,35.4 ± 7.5 nM,9500 nM,4.3 ng/mL,,,,,,,,,,
"CN(C)S(=O)(=O)c1ccc2c(c1)/C(=C/c1cc3c([nH]1)CCCC3)C(=O)N2 [SU6656, reference compound]",,,,,,,,,,,,,effect on SHEP cell adherence on immobilized GDNF (SHEP cells; [9]): did not impair their adherence; effect on SHEP cell spreading on immobilized GDNF (SHEP cells; [9]): diminished their spreading; effect of inhibitor on neurite outgrowth on immobilized GDNF [3]: prevented neurite outgrowth
"HB-GAM: ECM molecule, another syndecan-3-specific ligand (protein) GKKEKPEKKVKKSDCGEWQWSVCVPTSGDCGLGTREGTRTGAECKQTMKTQRCKIPCNWKKQFGAECKYQFQAWGECDLNTALKTRTGSLKRALHNADCQKTVTISKPCGKLTKPKPQAESKKKKKEGKKQEKMLD",,,,,,,,,,,,,effect on ^125I-GDNF binding to syndecan-3 on C6 cells (GDNF-syndecan-3 complex): displaced

# Second part, led by results:
Kd (GDNF [1]; [7]),Kd (GDNF [1]; [8]),IC50 (GDNF [2]),NaCl concentration at elution from heparin-sepharose column [4],binding to heparin-sepharose column [4],Kd = kdis/ka [5],Kd [5],Molecule,ka (×10^−5) (M^−1s^−1) [5],kdis [5],ka (×10^−5) (M^−1s^−1) ([6]; GFLs cuvette),kdis ([6]; GFLs cuvette),adherence and spreading of SHEP cells on immobilized protein (SHEP cells),further results
36.3 ± 4.6 nM,18000 nM and 18100 nM,1.3 ng/mL,,,,,6-O-desulfated heparin,,,,,,
,,,1 to 1.5 M,bind strongly to heparin,148 ± 39 nM,187 ± 34 nM,"ARTN: artemin, secreted growth factor, GDNF family ligand",0.09 (×10^−5) M^−1s^−1,0.0013 s⁻¹,8.0 (×10^−5) M^−1s^−1,0.042 s⁻¹,induced adherence and spreading,"Kd = kdis/ka ([6]; GFLs cuvette): 44.7 ± 12.3 nM; Kd [6, 10]: 13 ± 3.9 nM; ka (×10^−5) (M^−1s^−1) (syndecan-3 ectodomain): 6.3 ± 0.7 (×10^−5) M^−1s^−1"
29.1 ± 6.4 nM,11400 nM,2.3 ng/mL,,,,,N-desulfated heparin,,,,,,
,,,1.5 M,bind strongly to heparin,59.4 ± 6.2 nM,47 ± 7 nM,"NRTN: neurturin, secreted growth factor, GDNF family ligand (protein) ARLGARPCGLRELEVRVSELGLGYASDETVLFRYCAGACEAAARVYDLGLRRLRQRRRLRRERVRAQPCCRPTAYEDEVSFLDAHSRYHTVHELSARECACV",3.2 (×10^−5) M^−1s^−1,0.018 s⁻¹,1.9 (×10^−5) M^−1s^−1,0.022 s⁻¹,induced adherence and spreading,"Kd = kdis/ka ([6]; GFLs cuvette): 114 ± 44 nM; Kd [6, 10]: 23.7 ± 7.7 nM; Kd ([6]; SPR, dynamics, read-out: dynamics-derived Kd for heparin): > 100 nM; ka (×10^−5) (M^−1s^−1) (syndecan-3 ectodomain): 7.5 ± 1.6 (×10^−5) M^−1s^−1"
,,,0.5 M,does not,1072 ± 118 nM,> 1000 nM,"PSPN: persephin, secreted growth factor, GDNF family ligand (protein) ALSGPCQLWSLTLSVAELGLGYASEEKVIFRYCAGSCPRGARTQHGLALARLQGQGRAHGGPCCRPTRYTDVAFLDDRHRWQRLPQLSAAACGCGG",0.87 (×10^−5) M^−1s^−1,0.093 s⁻¹,0.02 (×10^−5) M^−1s^−1,0.064 s⁻¹,failed to adhere and spread,"Kd ([6]; SPR, dynamics, read-out: Kd for heparin (dynamics)): 29100 nM; Kd ([6]; SPR, equilibrium, read-out: Kd for heparin (equilibrium)): 11100 nM; neurite outgrowth on immobilized protein ([3]; 18 hours): failed to form processes"
